B1: UGT76G1var1: UGT76G1 variant, mutations E224A_F314S_R334K (protein, UniProt Q6VAB4 1-458, looked up, variant E224A F314S R334K)
UDP-glycosyltransferase 76G1: MENKTETTVRRRRRIILFPVPFQGHINPILQLANVLYSKGFSITIFHTNFNKPKTSNYPHFTFRFILDNDPQDERISNLPTHGPLAGMRIPIINEHGADELRRELELLMLASEEDEEVSCLITDALWYFAQSVADSLNLRRLVLMTSSLFNFHAHVSLPQFDELGYLDPDDKTRLEEQASGFPMLKVKDIKSAYSNWQILKEILGKMIKQTKASSGVIWNSFKALEESELETVIREIPAPSFLIPLPKHLTASSSSLLDHDRTVFQWLDQQPPSSVLYVSFGSTSEVDEKDFLEIARGLVDSKQSFLWVVRPGSVKGSTWVEPLPDGFLGERGKIVKWVPQQEVLAHGAIGAFWTHSGWNSTLESVCEGVPMIFSDFGLDQPLNARYMSDVLKVGVYLENGWERGEIANAIRRVMVDEEGEYIRQNARVLKQKADVSLMKGGSSYESLESLVSYISSL
B2: UGT76G1var43: UGT76G1 variant, mutations S241I_P272A_V279I (protein, UniProt Q6VAB4 1-458, looked up, variant S241I P272A V279I)
UDP-glycosyltransferase 76G1: MENKTETTVRRRRRIILFPVPFQGHINPILQLANVLYSKGFSITIFHTNFNKPKTSNYPHFTFRFILDNDPQDERISNLPTHGPLAGMRIPIINEHGADELRRELELLMLASEEDEEVSCLITDALWYFAQSVADSLNLRRLVLMTSSLFNFHAHVSLPQFDELGYLDPDDKTRLEEQASGFPMLKVKDIKSAYSNWQILKEILGKMIKQTKASSGVIWNSFKELEESELETVIREIPAPIFLIPLPKHLTASSSSLLDHDRTVFQWLDQQAPSSVLYISFGSTSEVDEKDFLEIARGLVDSKQSFLWVVRPGFVKGSTWVEPLPDGFLGERGRIVKWVPQQEVLAHGAIGAFWTHSGWNSTLESVCEGVPMIFSDFGLDQPLNARYMSDVLKVGVYLENGWERGEIANAIRRVMVDEEGEYIRQNARVLKQKADVSLMKGGSSYESLESLVSYISSL
B3: UGT76G1var44: UGT76G1 variant, mutations I335V_S375R_I407V (protein, UniProt Q6VAB4 1-458, looked up, variant I335V S375R I407V)
UDP-glycosyltransferase 76G1: MENKTETTVRRRRRIILFPVPFQGHINPILQLANVLYSKGFSITIFHTNFNKPKTSNYPHFTFRFILDNDPQDERISNLPTHGPLAGMRIPIINEHGADELRRELELLMLASEEDEEVSCLITDALWYFAQSVADSLNLRRLVLMTSSLFNFHAHVSLPQFDELGYLDPDDKTRLEEQASGFPMLKVKDIKSAYSNWQILKEILGKMIKQTKASSGVIWNSFKELEESELETVIREIPAPSFLIPLPKHLTASSSSLLDHDRTVFQWLDQQPPSSVLYVSFGSTSEVDEKDFLEIARGLVDSKQSFLWVVRPGFVKGSTWVEPLPDGFLGERGRVVKWVPQQEVLAHGAIGAFWTHSGWNSTLESVCEGVPMIFRDFGLDQPLNARYMSDVLKVGVYLENGWERGEVANAIRRVMVDEEGEYIRQNARVLKQKADVSLMKGGSSYESLESLVSYISSL
B4: UGT76G1var41: UGT76G1 variant, mutations L246F_A385T_K393G (protein, UniProt Q6VAB4 1-458, looked up, variant L246F A385T K393G)
UDP-glycosyltransferase 76G1: MENKTETTVRRRRRIILFPVPFQGHINPILQLANVLYSKGFSITIFHTNFNKPKTSNYPHFTFRFILDNDPQDERISNLPTHGPLAGMRIPIINEHGADELRRELELLMLASEEDEEVSCLITDALWYFAQSVADSLNLRRLVLMTSSLFNFHAHVSLPQFDELGYLDPDDKTRLEEQASGFPMLKVKDIKSAYSNWQILKEILGKMIKQTKASSGVIWNSFKELEESELETVIREIPAPSFLIPFPKHLTASSSSLLDHDRTVFQWLDQQPPSSVLYVSFGSTSEVDEKDFLEIARGLVDSKQSFLWVVRPGFVKGSTWVEPLPDGFLGERGRIVKWVPQQEVLAHGAIGAFWTHSGWNSTLESVCEGVPMIFSDFGLDQPLNTRYMSDVLGVGVYLENGWERGEIANAIRRVMVDEEGEYIRQNARVLKQKADVSLMKGGSSYESLESLVSYISSL
B5: UGT76G1var45: UGT76G1 variant, mutations V279I_D301N_S389E (protein, UniProt Q6VAB4 1-458, looked up, variant V279I D301N S389E)
UDP-glycosyltransferase 76G1: MENKTETTVRRRRRIILFPVPFQGHINPILQLANVLYSKGFSITIFHTNFNKPKTSNYPHFTFRFILDNDPQDERISNLPTHGPLAGMRIPIINEHGADELRRELELLMLASEEDEEVSCLITDALWYFAQSVADSLNLRRLVLMTSSLFNFHAHVSLPQFDELGYLDPDDKTRLEEQASGFPMLKVKDIKSAYSNWQILKEILGKMIKQTKASSGVIWNSFKELEESELETVIREIPAPSFLIPLPKHLTASSSSLLDHDRTVFQWLDQQPPSSVLYISFGSTSEVDEKDFLEIARGLVNSKQSFLWVVRPGFVKGSTWVEPLPDGFLGERGRIVKWVPQQEVLAHGAIGAFWTHSGWNSTLESVCEGVPMIFSDFGLDQPLNARYMEDVLKVGVYLENGWERGEIANAIRRVMVDEEGEYIRQNARVLKQKADVSLMKGGSSYESLESLVSYISSL
B6: UGT76G1var42: UGT76G1 variant, mutations T263S_Q266S_R334H (protein, UniProt Q6VAB4 1-458, looked up, variant T263S Q266S R334H)
UDP-glycosyltransferase 76G1: MENKTETTVRRRRRIILFPVPFQGHINPILQLANVLYSKGFSITIFHTNFNKPKTSNYPHFTFRFILDNDPQDERISNLPTHGPLAGMRIPIINEHGADELRRELELLMLASEEDEEVSCLITDALWYFAQSVADSLNLRRLVLMTSSLFNFHAHVSLPQFDELGYLDPDDKTRLEEQASGFPMLKVKDIKSAYSNWQILKEILGKMIKQTKASSGVIWNSFKELEESELETVIREIPAPSFLIPLPKHLTASSSSLLDHDRSVFSWLDQQPPSSVLYVSFGSTSEVDEKDFLEIARGLVDSKQSFLWVVRPGFVKGSTWVEPLPDGFLGERGHIVKWVPQQEVLAHGAIGAFWTHSGWNSTLESVCEGVPMIFSDFGLDQPLNARYMSDVLKVGVYLENGWERGEIANAIRRVMVDEEGEYIRQNARVLKQKADVSLMKGGSSYESLESLVSYISSL
B7: UGT76G1var46: UGT76G1 variant, mutations F22L_Q266E_I295M (protein, UniProt Q6VAB4 1-458, looked up, variant F22L Q266E I295M)
UDP-glycosyltransferase 76G1: MENKTETTVRRRRRIILFPVPLQGHINPILQLANVLYSKGFSITIFHTNFNKPKTSNYPHFTFRFILDNDPQDERISNLPTHGPLAGMRIPIINEHGADELRRELELLMLASEEDEEVSCLITDALWYFAQSVADSLNLRRLVLMTSSLFNFHAHVSLPQFDELGYLDPDDKTRLEEQASGFPMLKVKDIKSAYSNWQILKEILGKMIKQTKASSGVIWNSFKELEESELETVIREIPAPSFLIPLPKHLTASSSSLLDHDRTVFEWLDQQPPSSVLYVSFGSTSEVDEKDFLEMARGLVDSKQSFLWVVRPGFVKGSTWVEPLPDGFLGERGRIVKWVPQQEVLAHGAIGAFWTHSGWNSTLESVCEGVPMIFSDFGLDQPLNARYMSDVLKVGVYLENGWERGEIANAIRRVMVDEEGEYIRQNARVLKQKADVSLMKGGSSYESLESLVSYISSL
B8: UGT76G1var39: UGT76G1 variant, mutations F22Y_F41L_V366I (protein, UniProt Q6VAB4 1-458, looked up, variant F22Y F41L V366I)
UDP-glycosyltransferase 76G1: MENKTETTVRRRRRIILFPVPYQGHINPILQLANVLYSKGLSITIFHTNFNKPKTSNYPHFTFRFILDNDPQDERISNLPTHGPLAGMRIPIINEHGADELRRELELLMLASEEDEEVSCLITDALWYFAQSVADSLNLRRLVLMTSSLFNFHAHVSLPQFDELGYLDPDDKTRLEEQASGFPMLKVKDIKSAYSNWQILKEILGKMIKQTKASSGVIWNSFKELEESELETVIREIPAPSFLIPLPKHLTASSSSLLDHDRTVFQWLDQQPPSSVLYVSFGSTSEVDEKDFLEIARGLVDSKQSFLWVVRPGFVKGSTWVEPLPDGFLGERGRIVKWVPQQEVLAHGAIGAFWTHSGWNSTLESICEGVPMIFSDFGLDQPLNARYMSDVLKVGVYLENGWERGEIANAIRRVMVDEEGEYIRQNARVLKQKADVSLMKGGSSYESLESLVSYISSL
B9: UGT76G1var38: UGT76G1 variant, mutations F41L_I295M_F377C (protein, UniProt Q6VAB4 1-458, looked up, variant F41L I295M F377C)
UDP-glycosyltransferase 76G1: MENKTETTVRRRRRIILFPVPFQGHINPILQLANVLYSKGLSITIFHTNFNKPKTSNYPHFTFRFILDNDPQDERISNLPTHGPLAGMRIPIINEHGADELRRELELLMLASEEDEEVSCLITDALWYFAQSVADSLNLRRLVLMTSSLFNFHAHVSLPQFDELGYLDPDDKTRLEEQASGFPMLKVKDIKSAYSNWQILKEILGKMIKQTKASSGVIWNSFKELEESELETVIREIPAPSFLIPLPKHLTASSSSLLDHDRTVFQWLDQQPPSSVLYVSFGSTSEVDEKDFLEMARGLVDSKQSFLWVVRPGFVKGSTWVEPLPDGFLGERGRIVKWVPQQEVLAHGAIGAFWTHSGWNSTLESVCEGVPMIFSDCGLDQPLNARYMSDVLKVGVYLENGWERGEIANAIRRVMVDEEGEYIRQNARVLKQKADVSLMKGGSSYESLESLVSYISSL
B10: UGT76G1var40: UGT76G1 variant, mutations T263S_Q266E_S375R (protein, UniProt Q6VAB4 1-458, looked up, variant T263S Q266E S375R)
UDP-glycosyltransferase 76G1: MENKTETTVRRRRRIILFPVPFQGHINPILQLANVLYSKGFSITIFHTNFNKPKTSNYPHFTFRFILDNDPQDERISNLPTHGPLAGMRIPIINEHGADELRRELELLMLASEEDEEVSCLITDALWYFAQSVADSLNLRRLVLMTSSLFNFHAHVSLPQFDELGYLDPDDKTRLEEQASGFPMLKVKDIKSAYSNWQILKEILGKMIKQTKASSGVIWNSFKELEESELETVIREIPAPSFLIPLPKHLTASSSSLLDHDRSVFEWLDQQPPSSVLYVSFGSTSEVDEKDFLEIARGLVDSKQSFLWVVRPGFVKGSTWVEPLPDGFLGERGRIVKWVPQQEVLAHGAIGAFWTHSGWNSTLESVCEGVPMIFRDFGLDQPLNARYMSDVLKVGVYLENGWERGEIANAIRRVMVDEEGEYIRQNARVLKQKADVSLMKGGSSYESLESLVSYISSL

The data set in a line: Directed evolution of UGT76G1, conversion of Rebaudioside D to Rebaudioside M (round 1). Format: biochemical. As to conditions: 0.5 mM Rebaudioside D, 2.5 mM UDP-Glucose, 100 μL fresh lysate, 30° C., pH 7.2. Summed up:
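Conversion to Reb M and initial rate were measured by HPLC with CAD at 2, 4, 7 and 24 h, with reactions run at 30° C in 50 mM phosphate pH 7.2 containing 0.5 mM Reb D, 2.5 mM UDP-glucose and 3 mM MgCl2. Enzyme source: fresh lysates of E. coli BL21(DE3) expressing 3-5-mutation UGT76G1 variants.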
Take B1: the “Conversion Reb D to Reb M after 24 h (%)” value is given as 51.8% and the “initial rate (Reb M area/min)” value was found to be 5.5E+07 Reb M area/min.
The matching figures for B2: 19.9% and 9.4E+06 Reb M area/min.
On the same counts, the results for B3 are 35.3% and 2.3E+07 Reb M area/min.
On the same counts, the results for B4 are 0.8% and 1.4E+06 Reb M area/min.
As to B5, the “Conversion Reb D to Reb M after 24 h (%)” value is 38.6% and the “initial rate (Reb M area/min)” value amounted to 2.3E+07 Reb M area/min.
For the molecule B6, the “Conversion Reb D to Reb M after 24 h (%)” value amounted to 34.6% and the “initial rate (Reb M area/min)” value is 2.2E+07 Reb M area/min.
The matching figures for B7: 0.6% and 9.8E+05 Reb M area/min.
The matching figures for B8: 7.2% and 3.3E+06 Reb M area/min.
On the same counts, the results for B9 are 8.2% and 3.7E+06 Reb M area/min.
With B10, the “Conversion Reb D to Reb M after 24 h (%)” value amounted to 47.6% and the “initial rate (Reb M area/min)” value turned out to be 3.3E+07 Reb M area/min.
